This note sets out measurements from the nanobody polyreactivity screen of Harvey et al. (2022).

This data set is described as follows: yeast display, Sf9 membrane polyspecificity reagent, FACS + sequencing; frameworks hold sequencing errors. In short, it runs like this: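 Genes from sorted yeast were amplified by colony PCR, read by MiSeq 2 × 250 sequencing and filtered on CDR length. These cells carried a synthetic nanobody library in Saccharomyces cerevisiae BJ5465 and were sorted by FACS into low and high (top ~1%) gates on anti-HA and streptavidin fluorescence. Polyreactivity is labelled according to the gate of origin.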
On to “QVQLVESGGGLVQAGGSLRLSCAASGRILAGYAMGWYRQAPGKERELVAAITRGGTTYYADSVKGRFTISRDNAKYTVYLQMNSLKPEDTAVVYTVSSAQYDYWGQGTQVTVSS”, for which the “polyreactivity (PSR sort gate)” value was “low polyreactivity”.
“QVQLVESGGGLVQAGGSLRLSCAASGRILAGYTMGWYRQAPGKERELVAAISDRGGSTYYADSVKGRFTISRDNAKNTVYLQMNSLKPEDTAVYYCNAVVYSYALTPSYAGDYWGQGTQVTVSS”: the “polyreactivity (PSR sort gate)” value is recorded as “low polyreactivity”.
For the sequence “QVQLVESGGGLVQAGGSLRLSCAASGRILAPYAMGWYRQAPGKERELVAAISASGGTTYYADSVKGRFTISRDNAKNTVYLQMNSLKPEDTAVYYCNARWSPGNLRYGREGDYWGQGTQVTVSS”, the “polyreactivity (PSR sort gate)” value was “high polyreactivity”.
For the sequence “QVQLVESGGGLVQAGGSLRLSCAASGRILAYYAMGWYRQAPGKERELVDAINRSGVRTYYADSVKGRFTISRDYAKNTVYLQMNSLKPEDTAVYYCAAPGQHSWGQGTQVTVSS”, the “polyreactivity (PSR sort gate)” value is “high polyreactivity”.
Turning to “QVQLVESGGGLVQAGGSLRLSCAASGRILDANDMGWYRQAPGKERELVAGINSGGSTYYADSVKGRFTISRDNAKNTVYLQMNSLKPEDTAVYYCAAGGVSAKYDYWGQGTQVTVSS”, the “polyreactivity (PSR sort gate)” value is given as “low polyreactivity”.
Consider “QVQLVESGGGLVQAGGSLRLSCAASGRILDINTMGWYRHPPGKERELVAAITWSGVSTYYADSVKGRFTISRDNAKNTVYLQMNSLKPEDTAVYYCAARPYYTWRYLPTKSGDYWGQGTQVTVSS”, for which the “polyreactivity (PSR sort gate)” value is given as “low polyreactivity”.
On to “QVQLVESGGGLVQAGGSLRLSCAASGRILDYNAMGWYIQAPGKERELVAAITLNGGGTYYADSVKGRFTISRDNAKNSVYLQMNSLKPEDTAVYYCNADYRRYPEFDYWGQGTHVTVSS”, for which the “polyreactivity (PSR sort gate)” value is “high polyreactivity”.
Regarding “QVQLVESGGGLVQAGGSLRLSCAASGRILDYNAMGWYRQAPGKERELVADISGSGDSTYYADSVKGRFTISRDNAKNTVYLQMNSLKPEDTAVYYCNRQTVRPHSRAGYDYWGQGTQVTVSS”, the “polyreactivity (PSR sort gate)” value is “low polyreactivity”.
As for “QVQLVESGGGLVQAGGSLRLSCAASGRILELNAMGWYRQAPGKERELVAGISNSGDTTYYADSVKGRFTISRDNAKNTVYLQMNSLKPEDTAVYYCNADGVVTWYDYWGQGTQVTVSS”, the “polyreactivity (PSR sort gate)” value is on record as “low polyreactivity”.
As for “QVQLVESGGGLVQAGGSLRLSCAASGRILEYNAMGWYRQAPGKERELVAAITSDGSTNYADSVKGRFTISRDNAKNTVYLQMNSLKPEDTAVYYCNTRYSLYTKYAYYDELDYWGQGTQVTLSS”, the “polyreactivity (PSR sort gate)” value was “low polyreactivity”.
Turning to “QVQLVESGGGLVQAGGSLRLSCAASGRILGGNTMGWYRQAPGKERELVAGISYSGGRTYYADSVKGRFTISRDNAKHTVYLQMNSLKPEDTAVYYCAAEYDWYSYQLDYWGQGTQVTVSS”, the “polyreactivity (PSR sort gate)” value was “high polyreactivity”.
For the sequence “QVQLVESGGGLVQAGGSLRLSCAASGRILGNNVMGWYRQAPGKERELVAAITSSGGRTYYADSVKGRFTISRDNAKNTVYLQMNSLKPVDTAVYYCAAERRYYGKFNYWGQGTQVTVSS”, the “polyreactivity (PSR sort gate)” value is “high polyreactivity”.
With “QVQLVESGGGLVQAGGSLRLSCAASGRILGRNAMGWYRQAPGKERELVATITSRGGSTYYADSVKGRFTISRDNAKNTVYLQMNSLKPEDTAVYYCAAPRYYYYSYDYWGQGTQVTVSS”, the “polyreactivity (PSR sort gate)” value is given as “high polyreactivity”.
In the case of “QVQLVESGGGLVQAGGSLRLSCAASGRILGRYAMGWYRQAPGKERELVAAITARTGSTYYADSVKGRFTISRDNAKNTVYLQMNSLKPEDTAVYYCAAERGWWRNDFDYWGQGTQVTVSS”, the “polyreactivity (PSR sort gate)” value was “high polyreactivity”.
With “QVQLVESGGGLVQAGGSLRLSCAASGRILGTNAKGWYRQAPGKERELVAAISRGGSTYYADSVKGRFTISRDNANNTVYLQMNSLKPEDTAVFYCAVTVLSKRRYYYWGQGTQVTVSS”, the “polyreactivity (PSR sort gate)” value is listed as “high polyreactivity”.
Turning to “QVQLVESGGGLVQAGGSLRLSCAASGRILGYYAMGWYRQAPGKERELVAAISSGDSTNYADSVKGRFTISRDNAKNTVYLQMNSLKPEDTAVYYCAAKGWIWNPYNYWGQGTQVTVSS”, the “polyreactivity (PSR sort gate)” value is “low polyreactivity”.
Regarding “QVQLVESGGGLVQAGGSLRLSCAASGRILHGYAMGWYRQAPGKERELVAAITSSGGRTYYADSVKGRFPISRDNAKNTVYLQMISLKPEDTAVYYCAADRPAYRTGDSKYDYWGQGTQVTVSS”, the “polyreactivity (PSR sort gate)” value was “low polyreactivity”.
In the case of “QVQLVESGGGLVQAGGSLRLSCAASGRILHGYAMGWYRQAPGKERELVAAITSSGGRTYYADSVKGRFTISRDNAKNPVYLQMNSLKPEDTAVYYCAADRPAYRTGESKYDYWGQGTQVTVSS”, the “polyreactivity (PSR sort gate)” value is given as “low polyreactivity”.
With “QVQLVESGGGLVQAGGSLRLSCAASGRILIGNALGWYRQAPGKERELVAAISKRGGSTYYADSVKGRFTMSRDNAKNTDYLHMNSLKPEDTAVYYCNIESLYREFDYWGQGTLVTVSS”, the “polyreactivity (PSR sort gate)” value is “low polyreactivity”.
Consider “QVQLVESGGGLVQAGGSLRLSCAASGRILNINAMGWYRQAPGKERELVAAITWRGGRTFYADSVKGRFTISRDNAKNTVYLQMNSLKPEDTAVYYCAKGYRGYSYGYWGQGTQVTVSS”, for which the “polyreactivity (PSR sort gate)” value is given as “high polyreactivity”.
The entry for “QVQLVESGGGLVQAGGSLRLSCAASGRILNINAMGWYRQAPGQERELVAAITWRGGRTFYADSVKGRFTISRDNAKNTVYLQMNSLKPEDTAVYYCAASSNTWYPTGYYWGQGTQVTVSS” is “high polyreactivity”.
For “QVQLVESGGGLVQAGGSLRLSCAASGRILPGYALGWYRQAPGKERELVAAIRGNGDSTYYADSVKGRFTISRDNAKNTVYLQMNSLKPEDTAVYYCAARRVSTIPRDSYRGRKYGYWGQGTQVTVSS”, the “polyreactivity (PSR sort gate)” value is given as “low polyreactivity”.
With “QVQLVESGGGLVQAGGSLRLSCAASGRILPSNAMGWYRQAPGKEREFVAGISGSGGSTYYADSVKGRFTISRDNAKNTVYLQMNSLKPEDTAVYYCAAGRAYDGTKHDYWGQGTQVTVSS” the entry was “high polyreactivity”; with “QVQLVESGGGLVQAGGSLRLSCAASGRILPWYAMGWYRQAPGKERELVARIRSTDSTNYADSVKGRFTISRDNAKNTVYLQMNSLKPEDTAVYYCAKVQWGFPYAWLGSDYWGQGTQVTVSS”, “low polyreactivity”; with “QVQLVESGGGLVQAGGSLRLSCAASGRILPYNVMGWYRQAPGKEREFVAAITGSGGDTYYADSVKGRFTISRDNAKNTVYLQMNSLKPEDTAVYYCAAAPYIGGSFGQTPGSGYWGQGTQVTVSS”, “low polyreactivity”.
With “QVQLVESGGGLVQAGGSLRLSCAASGRILPYNVMGWYRQATGKEREFVAAITGSGGDTYYADSVKGRFTISRDNAKNTVYLQMHILKPVDTAVYYCAAAPYIGGSFGQTPGSGYWGQGTQVTVSS”, the “polyreactivity (PSR sort gate)” value was “low polyreactivity”.
With “QVQLVESGGGLVQAGGSLRLSCAASGRILQYNDMGWYRPAPGKERELVAAIDWSGGITYYADSVKGRFTISRDNAKNTVYLQMNSLKPEDTAVYYCNADFEYSYLYRMEYWGQGTQVTVSS” the entry was “low polyreactivity”.
On to “QVQLVESGGGLVQAGGSLRLSCAASGRILRFYAMGWYRQAPGKERELVATISRSGGSTYYADSVKGRFTISRDNAKNTVYLQMNSLKPEDTAVYYSNAKFKGVSYKMDYWGQGTQVTVSS”, for which the “polyreactivity (PSR sort gate)” value is recorded as “high polyreactivity”.
For the sequence “QVQLVESGGGLVQAGGSLRLSCAASGRILRSNAMGWYRQAPGKERELVAAITSSGGSTRYADSVKGRFTISRDNAKNTVYLQMNSLKPEDTAVYYCAARYRQGFQAGHGYWGQGTQVTVSS”, the “polyreactivity (PSR sort gate)” value was “high polyreactivity”.
As to “QVQLVESGGGLVQAGGSLRLSCAASGRILRYNAMGWYRQAPGKERELVAAITRTGGITRYADSVKGRFTISRDNAKNTVSLQMNSLNPQDTAVYYCNTYPRYGYVLSWPQGYDYWGQGTQVTVSS”, the “polyreactivity (PSR sort gate)” value is given as “low polyreactivity”.
Consider “QVQLVESGGGLVQAGGSLRLSCAASGRILRYNAMGWYRQAPGKERELVASISGNGGSTYYADSVKGRFTISRDNAKNTVYVQMNSLKPEDTAVYYCNKYYYSSRGQKEYDYWGQGTQVTVSS”, for which the “polyreactivity (PSR sort gate)” value is reported as “low polyreactivity”.
“QVQLVESGGGLVQAGGSLRLSCAASGRILRYYAMGWYRQAPGKELELVASISRGGSTYYADSVKGRFTISRDNAKNTVYLQMNSLKPEDTAVYYCATEVRRSTREFGYWGQGTQVTVSS”: the “polyreactivity (PSR sort gate)” value was “high polyreactivity”.
For the sequence “QVQLVESGGGLVQAGGSLRLSCAASGRILRYYTMGWYRQAPGKERELVAAITWSGGSTNYADSVKGRFTISRDYAKNTVYLQMNSLKPEDSEVYYCNADRRKYYFTYGSWGQGTQVTVSS”, the “polyreactivity (PSR sort gate)” value is recorded as “high polyreactivity”.
With “QVQLVESGGGLVQAGGSLRLSCAASGRILSANAMGWYRQAPGTERELVAAITYSGDNTYYADSVKGRFTISRDNAKNTVYLQMNSLKPEDTAVYYCAREFQVDGGEEDYWGQGSQVTVSS” the entry was “low polyreactivity”.
With “QVQLVESGGGLVQAGGSLRLSCAASGRILSLYAMGWNRQAPGKERELVASINWSDGSTYYADSVKGRFTISRDNAKNTVYLQMNSLKPEDTAVYYCTVDVRSYVAGYDYWGQGTQVTVSS” the entry was “low polyreactivity”.
“QVQLVESGGGLVQAGGSLRLSCAASGRILSTYAMGWYRQAPGKERELVAVISWTGGRTYYADSVKGRFTISRYNAKNTVYLQMNSLKPEDTAVYYCNARPYYGGTRGRQYEYGYWGQGSQVTVSS”: the “polyreactivity (PSR sort gate)” value is on record as “high polyreactivity”.
Consider “QVQLVESGGGLVQAGGSLRLSCAASGRILSYYAMGWYRQAPGKERELVARITGRGGSTYYADSVKGRFTISRDNAKNTVYLQMNSLKPEDTAVYYCAAVPWVVYSGYDYWGQGTQVTVSS”, for which the “polyreactivity (PSR sort gate)” value is reported as “low polyreactivity”.
On to “QVQLVESGGGLVQAGGSLRLSCAASGRILTSNAMGWYRQAPGKERELVAAISWSGGSTYYADSVKGRFTISRDNAKNTVYLQMNSLKPEDTAVYYCAARSIGRAGGYHYWGQGTQVTVSS”, for which the “polyreactivity (PSR sort gate)” value is “low polyreactivity”.
With “QVQLVESGGGLVQAGGSLRLSCAASGRILTTNAMGLYRQETGKERELVAAITRSGGRTYYADSVKGRFTISRDNAKNTVYLQMNSLKPEDTAVYYCNAVTTRLALYDYWGQGTQVTVSS”, the “polyreactivity (PSR sort gate)” value was “high polyreactivity”.
For the sequence “QVQLVESGGGLVQAGGSLRLSCAASGRILVSYAMGWYRQAPGKERELVAAISRSGGSTYYADSVKGRFTISRDNAKNTVYLQMNSLKPEDTAVYYCNVYRFSRYDYWGQGTQVTVSS”, the “polyreactivity (PSR sort gate)” value is recorded as “high polyreactivity”.
The entry for “QVQLVESGGGLVQAGGSLRLSCAASGRILVTYAMGWYRQAPGKERELVAAITRGTNTNYADSVKGRFTISRDNAKNTVYLQMNSLKPEDTAVYYCAARRYRYRYGYGGDYWGQGTQVTVSS” is “high polyreactivity”.
